Measured values: paper PMC7547225 (Proceedings of the National Academy of Sciences of the …, 2020)

Tests used:
[1] = target: the molecule itself
AUC = target: the molecule itself; assay: AUC

Protein	stoichiometry N [1]	Kd (AUC)
hs PCDH15 EC1-3 G16D/N369D/Q370N (domain or fragment) not shown	2	–
hs PCDH15 EC2-3 WT (domain or fragment) NSPTFKHESYYATVNELTPVGTTIFTGFSGDNGATDIDDGPNGQIEYVIQYNPDDPTSNDTFEIPLMLTGNIVLRKRLNYEDKTRYFVIIQANDRAQNLNERRTTTTTLTVDVLDGDDLGPMFLPCVLVPNTRDCRPLTYQAAIPELRTPEELNPIIVTPPIQAIDQDRNIQPPSDRPGILYSILVGTPEDYPRFFHMHPRTAELSLLEPVNRDFHQKFDLVIKAEQDNGHPLPAFAGLHIEILDENN	–	< 1000 nM
